According to the supplement of paper PMC12764529:
± gives the half width of the 95% confidence interval.

How the values were obtained:
[1] = folding stability dG unfold from trypsin proteolysis; higher = more stable
Procedure, shortened: (§1)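 Designed mini-proteins with no cysteine and under 80 residues were kept only if AlphaFold2 dimer inter-PAE was above 15. In a PA-tagged cDNA display construct, they were digested with trypsin and chymotrypsin and then sequenced. K50 was inferred by Bayesian fitting of counts, and unfolding free energy was derived per protease or combined against a sequence-predicted unfolded-state K50 and a shared folded-state K50.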

[2] = folding stability dG unfold from chymotrypsin proteolysis; higher = more stable
Procedure, shortened: as §1

[3] = folding stability dG unfold (combined trypsin and chymotrypsin); higher = more stable
Procedure, shortened: as §1

Sequence: SAEVELKPDEELEFEFPDSQVKISYVPGTGVITTTTTFTTPDGTVVYKTTTIKKEGKEVTSTTVSLAEASSA [r9_881_JUSTAS]
- folding stability dG unfold [1]: 0.389 ± 0.054 kcal/mol
- folding stability dG unfold [2]: 1.52 ± 0.067 kcal/mol
- folding stability dG unfold [3]: 1.17 ± 0.12 kcal/mol

Sequence: SKVKIVKVEYDKETNVVTVTIYDEKTKKKIEIRYTPGKVEIVVEIDGKKLVLKFKTKEEALEAAKKLLKKSA [r9_527_TrROS_Hall]
- folding stability dG unfold [1]: 2.72 ± 0.089 kcal/mol
- folding stability dG unfold [2]: 3.94 ± 0.079 kcal/mol
- folding stability dG unfold [3]: 3.61 ± 0.2 kcal/mol

Sequence: SVKIKINWQRDPEDGRLYLMIEYRFEDDPQQAIEEIKDILERFGFKVPEIESITVDPGNGEITIPIRIPWSA [r9_876_TrROS]
- folding stability dG unfold [1]: 2.64 ± 0.097 kcal/mol
- folding stability dG unfold [2]: 2.62 ± 0.11 kcal/mol
- folding stability dG unfold [3]: 2.66 ± 0.22 kcal/mol

Sequence: SAGGSIELPLEEGSTAEVELELRVPFYRLDANGRPVAPEERTLRIRARFTRLPDGRVLVEVEVEVESAGGSA [r2_154_TrMRF]
- folding stability dG unfold [1]: 4.46 ± 0.17 kcal/mol
- folding stability dG unfold [2]: 5.24 ± 0.1 kcal/mol
- folding stability dG unfold [3]: 4.98 ± 0.13 kcal/mol

Sequence: SAGGSAGGKGGKPKIKLEPINTNPNGWQTFRFEVTPEAIDDLMDDFPNVQVERHPGEMYITVRNSAGGSAGG [r6_395_TrROS]
- folding stability dG unfold [1]: -0.418 ± 0.56 kcal/mol
- folding stability dG unfold [2]: -0.0427 ± 0.39 kcal/mol
- folding stability dG unfold [3]: -0.104 ± 0.23 kcal/mol

Sequence: SAGGSMKIEKLPDGKTVVIETVDEETNTITRTRFKLDKDGKLVEMEVETITLPAPPPEEVDEDGKESAGGSA [r2_375_TrROS_Hall]
- folding stability dG unfold [1]: 1.92 ± 0.098 kcal/mol
- folding stability dG unfold [2]: 2.3 ± 0.092 kcal/mol
- folding stability dG unfold [3]: 2.17 ± 0.16 kcal/mol

Sequence: SAMTEEEKKKKKEEEEKKKRELKIIVVAKTKDGKWKKIAEFTVKNKDMSIEELVKKLKDLGVEEVKIFPSAG [r14_318_TrROS_Hall]
- folding stability dG unfold [1]: 1.8 ± 0.082 kcal/mol
- folding stability dG unfold [2]: 3.09 ± 0.093 kcal/mol
- folding stability dG unfold [3]: 2.67 ± 0.26 kcal/mol

Sequence: SAGGSAGGSAGGSAGRLVKETKTTSYIFTFKKPTGEPISKKTSFVTSSLILLSDPSKISSAGGSAGGSAGGS [r4_450_JUSTAS]
- folding stability dG unfold [1]: 4.18 ± 0.37 kcal/mol
- folding stability dG unfold [2]: 4.6 ± 0.39 kcal/mol
- folding stability dG unfold [3]: 4.6 ± 0.44 kcal/mol

Sequence: SAGGSAGGSPPPITIFTAYKDPEDGPYWMKRRKINPDNGNIEEEWYPADDLADHGLPPGDIFISAGGSAGGS [r12_123_TrROS]
- folding stability dG unfold [1]: -0.566 ± 0.88 kcal/mol
- folding stability dG unfold [2]: 0.413 ± 0.33 kcal/mol
- folding stability dG unfold [3]: 0.203 ± 0.2 kcal/mol

Sequence: SAGGSAGGSAGSLTFQLPNGTEITVTEITLEIKLPNGDVILIKITVDPEPPVTTEVTFVNSAGGSAGGSAGG [r11_804_JUSTAS]
- folding stability dG unfold [1]: 1.8 ± 0.066 kcal/mol
- folding stability dG unfold [2]: 1.37 ± 0.09 kcal/mol
- folding stability dG unfold [3]: 1.64 ± 0.13 kcal/mol

Sequence: SAGMKKPPPPTVTIKIRVNGKTITITVYPDGTVTVTFENGEKKTIKMTPEEVEKLLKELEKKGYEIELVSAG [r5_753_TrROS_Hall]
- folding stability dG unfold [1]: 2.51 ± 0.26 kcal/mol
- folding stability dG unfold [2]: 0.664 ± 0.33 kcal/mol
- folding stability dG unfold [3]: 1.49 ± 0.48 kcal/mol

Sequence: SAGGSAEIAEKNGFKITVELHRYNDYIMVEIEIRWPGGQEFTVTIMIKIKIVPPKPPVDPNDPDNNSAGGSA [r15_843_TrROS]
- folding stability dG unfold [1]: 4.47 ± 0.61 kcal/mol
- folding stability dG unfold [2]: 4.47 ± 0.12 kcal/mol
- folding stability dG unfold [3]: 4.48 ± 0.51 kcal/mol

Sequence: SAGGSAGGSAAAPPPPTITITVEVRTLPDGTVEITATATLPDGTTLTVTLRINADGSLTATSAGGSAGGSAG [r3_259_TrROS_Hall]
- folding stability dG unfold [1]: 1.91 ± 0.13 kcal/mol
- folding stability dG unfold [2]: 3.4 ± 0.17 kcal/mol
- folding stability dG unfold [3]: 3.17 ± 0.23 kcal/mol

Sequence: SAMSVTISFDPKGPGGTLTITADPNSPQIEKFINELKKKLNLDIKSYTKTILPNGTVKVTLTYSKINLPSAG [r14_655_JUSTAS]
- folding stability dG unfold [1]: 4.05 ± 0.11 kcal/mol
- folding stability dG unfold [2]: 4.657 ± 0.028 kcal/mol
- folding stability dG unfold [3]: 4.51 ± 0.083 kcal/mol

Sequence: SAGGSAGGSAGGMKVIKIEDVEKVKAEAKKNGIKVTYKKENDGEIIAYIEKIPKSIKNKSAGGSAGGSAGGS [r10_218_JUSTAS]
- folding stability dG unfold [1]: -0.832 ± 0.34 kcal/mol
- folding stability dG unfold [2]: 0.449 ± 0.14 kcal/mol
- folding stability dG unfold [3]: -0.00327 ± 0.23 kcal/mol

Sequence: SAGGMLPGEPEVELVLEIEIDVPPGEISAEELERLLRELFPGAEVVDVRVEEEGGKLRIEVVIRLPPSAGGS [r8_202_TrROS_Hall]
- folding stability dG unfold [1]: 3.42 ± 0.14 kcal/mol
- folding stability dG unfold [2]: 2.67 ± 0.058 kcal/mol
- folding stability dG unfold [3]: 3.17 ± 0.13 kcal/mol

Sequence: SAMLRIRVEYEDGRVEDIVIPLAGEDPPFGKEAVEEAAERIAKEVEEKYGLKNVKTEVEAFPVSPEELLSAG [r14_378_TrMRF]
- folding stability dG unfold [1]: 0.326 ± 0.096 kcal/mol
- folding stability dG unfold [2]: 1.06 ± 0.2 kcal/mol
- folding stability dG unfold [3]: 0.818 ± 0.1 kcal/mol

Sequence: SAGGSAGGSADDEIVAEFTFTVPGTGVKKVKVKVFKDPNSDEYWVRVEGKWLPVSNPEEALESAGGSAGGSA [r18_67_TrMRF]
- folding stability dG unfold [1]: 1.62 ± 0.11 kcal/mol
- folding stability dG unfold [2]: 2.4 ± 0.066 kcal/mol
- folding stability dG unfold [3]: 2.1 ± 0.14 kcal/mol

Sequence: SAGKKYVVVIDIEVKMPGKTKPRPIVIPVPEGETIKEQLSELPGLDNVKIKIQVIPPDQDPDFAGQPISAGG [r19_339_TrROS]
- folding stability dG unfold [1]: 0.569 ± 0.16 kcal/mol
- folding stability dG unfold [2]: 1.76 ± 0.17 kcal/mol
- folding stability dG unfold [3]: 1.2 ± 0.29 kcal/mol

Sequence: SGLTLTLPVAPDEELKLTLKLPNTDETVEVEAETVAETGDVFAVAVATPPNGDKKVVPAVIKVEPGEPDESA [r9_770_TrMRF]
- folding stability dG unfold [1]: 0.704 ± 0.038 kcal/mol
- folding stability dG unfold [2]: 0.332 ± 0.16 kcal/mol
- folding stability dG unfold [3]: 0.642 ± 0.12 kcal/mol

Sequence: SAGMITVPLPDGSVLELTVEKETVTTEVDPSTGKKRLVTETLMTNTGDLAVNGKVSPTTATLTTVVLESAGG [r19_246_JUSTAS]
- folding stability dG unfold [1]: -0.36 ± 0.067 kcal/mol
- folding stability dG unfold [2]: 0.373 ± 0.045 kcal/mol
- folding stability dG unfold [3]: 0.155 ± 0.069 kcal/mol

Sequence: SAGSNKKITAEELAKLLEEKFKEKFPDAEIKVHAHAEPRPDDKLIIHVHFEIYRKKPKIGEFDVVIEFESAG [r5_696_TrMRF]
- folding stability dG unfold [1]: 1.55 ± 0.085 kcal/mol
- folding stability dG unfold [2]: 2.76 ± 0.043 kcal/mol
- folding stability dG unfold [3]: 2.38 ± 0.13 kcal/mol

Sequence: SAGDAEEIAKKIEEAAREEFAARLGYPDLEILKVEVLEVDPVTGRVRVRVTVRLPDGRLLEAEFEVPVASAG [r5_20_TrMRF]
- folding stability dG unfold [1]: 3.83 ± 0.06 kcal/mol
- folding stability dG unfold [2]: 3.41 ± 0.06 kcal/mol
- folding stability dG unfold [3]: 3.65 ± 0.065 kcal/mol

Sequence: SAGGSFVVIEPTADGVRIVLEDDGALREVPVSPEVAAALAANPDLEGVVRSLLPEGHPIERIAAVPGSAGGS [r16_567_TrMRF]
- folding stability dG unfold [1]: -0.755 ± 0.24 kcal/mol
- folding stability dG unfold [2]: -0.476 ± 0.17 kcal/mol
- folding stability dG unfold [3]: -0.451 ± 0.2 kcal/mol

Sequence: SAGSIPEEIAKELGLPDLKVLKVETKPLPNGPLNIKIIELELPGGFKIKVTVVEEPEKIIIKTEPVPLSAGG [r19_392_JUSTAS]
- folding stability dG unfold [1]: 0.966 ± 0.034 kcal/mol
- folding stability dG unfold [2]: 0.64 ± 0.18 kcal/mol
- folding stability dG unfold [3]: 0.968 ± 0.27 kcal/mol

Sequence: SMIIKPGMSLEEVLNKIKELLKKGEKYKITVINKETGKVYEFEIDVKTKKIKVKEVTLENGEVIIKIEKVSA [r9_1059_TrROS_Hall]
- folding stability dG unfold [1]: 1.93 ± 0.046 kcal/mol
- folding stability dG unfold [2]: 3.54 ± 0.07 kcal/mol
- folding stability dG unfold [3]: 3.05 ± 0.12 kcal/mol

Sequence: SAGGFWLKNPNGHYIQVNVEVEWEPRRDPDNGKPTWEPKIEINVEVYDPNGEKRPIPEDQAKDLLKKLSAGG [r13_809_TrROS]
- folding stability dG unfold [1]: 0.604 ± 0.073 kcal/mol
- folding stability dG unfold [2]: 1.64 ± 0.082 kcal/mol
- folding stability dG unfold [3]: 1.31 ± 0.11 kcal/mol

Sequence: SAGGKVYYIEIPPELLEAFPDLVVEPVEQPEDFVVAPVFLSDKVLLVPIRVFSEDGKELFDFTLTSNPSAGG [r13_129_TrMRF]
- folding stability dG unfold [1]: 1.18 ± 0.027 kcal/mol
- folding stability dG unfold [2]: 1.77 ± 0.024 kcal/mol
- folding stability dG unfold [3]: 1.62 ± 0.037 kcal/mol

Sequence: STITIEVETPEELEKALVEAEKLVEKGKDVKIEIFVRNENGETLKLTFDIKQLPDGIPVLEIEVEPVPPPSA [r9_1023_TrMRF]
- folding stability dG unfold [1]: 1.89 ± 0.1 kcal/mol
- folding stability dG unfold [2]: 3.1 ± 0.041 kcal/mol
- folding stability dG unfold [3]: 2.74 ± 0.13 kcal/mol

Sequence: SAGGSAGGAEIVEIEVRKEKRPDGKEVLTVKVKIKLENGEEIEVTVREGMTLEEALKKAKELLKSAGGSAGG [r6_986_TrROS_Hall]
- folding stability dG unfold [1]: 2.1 ± 0.086 kcal/mol
- folding stability dG unfold [2]: 2.75 ± 0.12 kcal/mol
- folding stability dG unfold [3]: 2.56 ± 0.14 kcal/mol

Sequence: SAGGSASVVLPNATVEELKEAVEKGAKEIVVVSPDPARAATIKAEIEKLHDTPVKVLTPEEAAALESAGGSA [r15_243_JUSTAS]
- folding stability dG unfold [1]: -0.205 ± 0.037 kcal/mol
- folding stability dG unfold [2]: 1.32 ± 0.035 kcal/mol
- folding stability dG unfold [3]: 0.907 ± 0.055 kcal/mol
